According to US20240132621A1:

Target: chitinase-3-like protein-1 (YKL-40) on human ovarian cancer cell CA5171 (human) (UniProt P36222)
Experiment: flow cytometry on human ovarian cancer cell CA5171

Sequence of UniProt P36222 (P36222 22-383): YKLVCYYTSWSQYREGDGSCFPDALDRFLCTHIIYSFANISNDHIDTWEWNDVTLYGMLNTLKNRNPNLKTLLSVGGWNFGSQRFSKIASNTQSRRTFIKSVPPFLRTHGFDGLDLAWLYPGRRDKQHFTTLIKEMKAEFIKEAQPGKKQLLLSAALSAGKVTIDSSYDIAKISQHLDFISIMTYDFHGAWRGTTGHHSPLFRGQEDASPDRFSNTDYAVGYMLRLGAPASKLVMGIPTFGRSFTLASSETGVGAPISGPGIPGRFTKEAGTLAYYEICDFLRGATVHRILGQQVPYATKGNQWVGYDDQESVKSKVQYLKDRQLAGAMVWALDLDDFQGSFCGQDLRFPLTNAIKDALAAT

control group antibody (IgG) was tested, and the binding ability (percent, flow cytometry) was 28.7%.
